Data on three substances can be found in PMC4489622.

Where “and” joins values, the source holds several entries; their conditions need not be identical. Equal values may be shown once.

For test [1], the target named is HpRF, N-terminal Rossmann fold domain of HpDprA (residues 1-212) (Helicobacter pylori strain J99) (UniProt B5ZAA1). Kind of test: cross-linking; glutaraldehyde on ice, SDS-10% PAGE, silver staining; HpDprA 5 µM with 0.01% to 0.5% glutaraldehyde at 4 °C for 15 min; conditions for HpRF in the legend of Fig B in S1 File.
Test [2] shares this target. Put plainly: SEC; Superdex 75 HR 10/300, 1X PBS, 0.3 ml/min, 500 µl injected, protein at 2 mg/ml, apparent mass from standards. (Size exclusion chromatography separates by hydrodynamic size, large species first.)
Test [3] has the same target. Put plainly: SPR; BIAcore 3000; the same protein amine-coupled on a CM5 chip (~1000 RU) and injected; 25 °C, 10 mM HEPES pH 7.4, 150 mM NaCl, 1 mM EDTA, 0.05% P-20, 20 µl/min; kon from 1:1 Langmuir fit, koff from the main phase of a biphasic dissociation, Kd = koff/kon. Background: Surface plasmon resonance follows binding to a sensor surface in real time, without labels.

Test [4] has as its target HpDML1, C-terminal DML-1 like domain of HpDprA (residues 213-266) (Helicobacter pylori strain J99) (UniProt B5ZAA1). Kind of test: SEC; Superdex 75 HR 10/300, 1X PBS, 0.3 ml/min, 500 µl injected, protein at 8 mg/ml, apparent mass from standards.
Test [5] has the same target. Kind of test: SPR; BIAcore 3000; the same protein amine-coupled on a CM5 chip (~1000 RU) and injected; 25 °C, 10 mM HEPES pH 7.4, 150 mM NaCl, 1 mM EDTA, 0.05% P-20, 20 µl/min; kon from 1:1 Langmuir fit, koff from the main phase of a biphasic dissociation, Kd = koff/kon.
Test [6] shares this target. Put plainly: cross-linking; glutaraldehyde on ice, SDS-12% PAGE, silver staining; HpDML1 at 140 µM, longer incubation with the cross-linker.
Test [7] has as its target Helicobacter pylori DNA processing protein A (HpDprA), full length, strain J99 (Helicobacter pylori strain J99) (UniProt B5ZAA1). Put plainly: cross-linking; glutaraldehyde on ice, SDS-10% PAGE, silver staining; HpDprA 5 µM with 0.01% to 0.5% glutaraldehyde at 4 °C for 15 min; conditions for HpRF in the legend of Fig B in S1 File.
For test [8] the target is unchanged. Put plainly: SEC; Superdex 75 HR 10/300, 1X PBS, 0.3 ml/min, 500 µl injected, protein at 2 mg/ml, apparent mass from standards.
For test [9] the target is unchanged. Put plainly: SPR; BIAcore 3000; the same protein amine-coupled on a CM5 chip (~1000 RU) and injected; 25 °C, 10 mM HEPES pH 7.4, 150 mM NaCl, 1 mM EDTA, 0.05% P-20, 20 µl/min; kon from 1:1 Langmuir fit, koff from the main phase of a biphasic dissociation, Kd = koff/kon.

“HpRF, N-terminal Rossmann fold domain of HpDprA (residues 1-212) (from UniProt B5ZAA1 1-212) (domain or fragment)”: the stoichiometry N in [1] and in [2] was 2 each time. The Kd – broadly, the free concentration of one partner at which half of the binding sites on the other are occupied at equilibrium, for simple one-to-one binding – in [3] was determined as 22.8 nM.
As to “HpDML1, C-terminal DML-1 like domain of HpDprA (residues 213-266) (from UniProt B5ZAA1 213-266) (domain or fragment)”, the stoichiometry N in [4] and in [6] was 2 each time. For the same substance, the Kd in test [5] turned out to be 2350 nM.
Consider “Helicobacter pylori DNA processing protein A (HpDprA), full length, strain J99 (from UniProt B5ZAA1 1-266) (natural protein)”, for which the stoichiometry N (usually a count of units in the complex or per binding partner) in test [7] is 2 and 3; in [8], 2. In test [9], this substance gave a Kd of 22.3 nM.
